Our source for the Kd values is PMC10403546 (2023).

For the experiment, the target named is X18 gp120. The experiment is described as follows: SPR. On the technique in general: In SPR one partner is held on a chip, and binding of the other changes the refractive index at the surface.

B1: bNAb F6 Fab (for SPR) (Fab, V domains shown)
VH: QVQLQQWGTGLLKPSETLSLTCAVYGVSLRGYYWTWIRQSPKKGLEWIGEIDEIGRTKYSQSLRSRATLSIDTSKKQFSLRLTSVTAADMATYYCARWRLMMVDEVTRHGMDVWSQGTMVTVSS
VL: DIVMTQSPLSLSVAPGEAASISCRSTQSLLNRNGDNYLEWYLRRPGRSPQLLIYLGSERALGVPDRFSGSGSGRDFTLKISRVEAQDVGTYYCLQTRQGAFTFGQGTKLEIK
For the molecule B1, the Kd (usually a measure of binding affinity in units of concentration) amounted to 32.5 nM.
